Experiment [1] concerns H5N1 (A/Vietnam/1203/04). Also on record: species or system balb/c mice. The note with it: mouse, in vivo.
Experiment [2] relates to H5N1 (A/Vietnam/1203/04). The arrangement: species or system balb/c mice. The note with it: mouse, in vivo. The source holds these as a separate data set.
Experiment [3] deals with influenza A/Puerto Rico/8/34 (PR8) virus particles (M2 protein on the virion) (influenza A virus H1N1 A/Puerto Rico/8/34) (UniProt P06821). Description: affinity of FAb fragments on whole PR8 virus.
For experiment [4] the target is unchanged. Description: surface plasmon resonance, Fab fragment on influenza virus.
For experiment [5], the target named is M2 protein of influenza A/Hong Kong/483/1997 (H5N1), expressed on cells (influenza A virus H5N1 A/Hong Kong/483/97).
The next experiment addresses HVIR1. Description: peptide ELISA, mAb 5 µg/mL.

Residue numbers refer to the chain shown, from its start. Values joined by “and” are separate entries in the source; they are usually repeats but may differ in a detail not shown here. Identical values can stand only once. “Also recorded” adds a separate entry of the source.

With `CCOC(=O)C1=C[C@@H](OC(CC)CC)[C@H](NC(C)=O)[C@@H](N)C1` [oseltamivir], the “percentage of weight remaining” value with H5N1 (A/Vietnam/1203/04) [1] is recorded as “completely protected; also recorded: retained more weight”. Also, the survival rate entry with H5N1 (A/Vietnam/1203/04) [2] is listed as “extinction of the population prior to the end of the therapy”. Regarding ch14C2 Fab fragment, in experiment [3], the Kd (as a rule, the equilibrium constant for the complex coming apart) came to 4 µM; the off-rate constant (koff) (commonly the first-order rate constant of dissociation) is 0.00286 s⁻¹; the kon (commonly the rate constant with which the complex forms) stood at 500 M⁻¹ s⁻¹. In experiment [4], the Kd was 4 µM, the koff was 0.0018 s⁻¹ and the kon amounted to 500 M⁻¹ s⁻¹.

B1: 3248_P18 (antibody, V domains shown)
VH: QVQLQESGPGLVKPSETLSLTCTVSGGSISAYHWSWIRQPPGKGLEWIGHIFDSGSTYYNPSLKSRVTISLDASKNQLSLRLTSVTASDTAIYYCARPLGSRYYYGMDVWGQGTTVTVSS
VL: DIQMTQSPSSLSASVGDRVTITCRASQSISRYLNWYQQKPGKAPKLLIYGASTLQNGAPSRFSGSGSGTDFTLTISSLQPEDSATYLCQQSYSVPAFGGGTKVEVK
In experiment [5], B1 displayed an MFI of 967 MFI.

B2: 8I10 (TCN-032) (antibody, V domains shown)
VH: QVQLQESGPGLVKPSETLSLTCTVSGSSISNYYWSWIRQSPGKGLEWIGFIYYGGNTKYNPSLKSRVTISQDTSKSQVSLTMSSVTAAESAVYFCARASCSGGYCILDYWGQGTLVTVS
VL: DIQMTQSPSSLSASVGDRVTITCRASQNIYKYLNWYQQRPGKAPKGLISAASGLQSGVPSRFSGSGSGTDFTLTITSLQPEDFATYYCQQSYSPPLTFGGGTRVEIK
For B2, the MFI in experiment [5] is 754 MFI and 1080 MFI. Besides, the ELISA A450 with HVIR1 was found to be 0.11.

B3: 3260_D19 (antibody, V domains shown)
VH: DMQLVESGGGLVPPGGSLRLSCAASGFSVSDNYINWVRQAPGKGLDWVSVFYSADRTSYADSVKGRFTVSSHDSKNTVYLQMNSLRAEDTAVYYCARVQKSYYGMDVWGQGTTVTVSS
VL: GIQMTQSPSSLSASVGDRVTITCRASQSISRYLNWYLQKPGKAPKLLISGASSLQSGVPSRFSGTGSGTEFTLTISSLQPEDFATYYCQQTFSIPLFGQGTKVEIK
Turning to B3, the MFI in experiment [5] amounted to 846 MFI.

B4: 3242_P05 (antibody, V domains shown)
VH: B3 VH
VL: B3 VL
B4 gave an MFI in experiment [5] of 596 MFI.

B5: 3139_P23 (antibody, V domains shown)
VH: QVQLQESGPRLVKPSESLSLTCTVSGGSISNSFWGWIRQPPGEGLEWIGYVYNSGNTKYNPSLKSRVTISRDTSKSQLYMKLRSVTAADTAVYYCARHDDASHGYSISWGHGTLVTVSS
VL: DIQMTQSPSSLSASVGDRVTITCRASQTISTYLNWYQQKSGKAPKLLIYAASGLQSGVPSRFSGSGSGTDFTLTISSLQPEDFATYFCQQSYNTPLTFGQGTKVEIK
B5: the MFI in experiment [5] was found to be 110 MFI.

B6: 23K12 (TCN-031) (antibody, V domains shown)
VH: EVQLVESGGGLVQPGGSLRISCAASGFTVSSNYMSWVRQAPGKGLEWVSVIYSGGSTYYADSVKGRFSFSRDNSKNTVFLQMNSLRAEDTAVYYCARCLSRMRGYGLDVWGQGTTVTVS
VL: DIQMTQSPSSLSASVGDRVTITCRTSQSISSYLNWYQQKPGKAPKLLIYAASSLQSGVPSRFSGSGSGTDFTLTISGLQPEDFATYYCQQSYSMPAFGQGTKLEIK
Consider B6, for which the ELISA A450 in the experiment with HVIR1 stood at 0.21.

B7: 3259_J21 (antibody, V domains shown)
VH: QVQLQESGPRVVRPSETLSLTCTVSGGSISSYNWIWIRQPPGKGLEWIGHIYDYGRTFYNSSLQSRPTISVDASKNQLSLRLTSVTASDTAVYYCARPLGILHYYAMDLWGQGTTVTVSS
VL: DIQMTQSPLSVSVSVGDRVTIACRASQSIDKFLNWYQQKPGKAPKLLIYGASNLHSGAPSRFSASGSGTDFTLTITNIQTEDFATYLCQQSFSVPAFGGGTKVEIK
Regarding B7, the MFI in experiment [5] is 1670 MFI.

B8: 3136_G05 (antibody, V domains shown)
VH: QVQLQESGPGLVKPSETLSLTCSVSGGSISSDFWSWIRQPPGKGLEWIGYVYNRGSTKYSPSLKSRVTISADMSKNQFSLNMSSVTAADTAVYYCAKNGRSSTSWGIDVWGKGTTVTVSS
VL: DIQMTQSPSSLSASVGDRLTITCRASQSISTYLHWYQQKPGKAPKLLIYAASSLQSGVPSRFSGSRSGTDFTLTISSLQPDDFATYYCQQSYSPPLTFGPGTKVDMK
For B8, the MFI in experiment [5] came out at 109 MFI.

B9: 3252_C13 (antibody, V domains shown)
VH: QVQLQESGPGLVKPSETLSLTCTVSGASISSDYWSWIRLPPGKGLEWIGYIYNRGSTKYTPSLKSRVTISLDTAENQFSLRLRSVTAADTAIYYCARHVGGHTYGIDYWGQGTLVTVSS
VL: DIQMTQSPSSLSASVGDRVTITCRASQSISNYLNWYQHKPGEAPKLLNYAASSLQSGVPSRFSASGSGTDFTLTISSLQPEDFATYYCQQSYNTPITFGQGTRLEIK
Take B9: in experiment [5], the MFI is 449 MFI.

B10: 3255_J06 (antibody, V domains shown)
VH: B9 VH with I92V
VL: B9 VL with T74S, S77G, Q100P
In turn, B10 came in with an MFI in experiment [5] of 442 MFI.

B11: 3420_I23 (antibody, V domains shown)
VH: QVQLQESGPGLVKPSETLSVTCKVSGDSISSYSWSWIRQPPGKGLEWVGYLYYSGSTKYNPSLKSRTTISVDTSTNQLSLKLSFVTAADTAVYFCARTGSESTTGYGMDVWGQGTTVTVSS
VL: B9 VL with N31T, H38Q, E42K, N48I, Q55H, A64G, T72A, N93S, T94P
In the case of B11, the MFI in experiment [5] was determined as 112 MFI.

B12: 3362_B11 (antibody, V domains shown)
VH: QVQLQASGPGLVKPSETLSLTCTVSGDSITSGAYYWTWIRQHPGKGLEWIGYIYYSGNTYYNPSLKSRVTISLDTSKNQFSLKVNSVTAADTAVYYCARAASTSVLGYGMDVWGQGTTVTVSS
VL: B9 VL with N31R, H38Q, K39E, E42K, N48V, A64G, N93S, I96L
B12: in experiment [5], the MFI was 218 MFI.

B13: 3244_H04 (antibody, V domains shown)
VH: EVQLVESGGGLVQPGGSLRLSCTASGLSVSSTYMNWVRQAPGKGLEWVSVFYSETRTYYADSVKGRFTVSRHNSNNTLYLQMNSLRAEDTAVYYCARVQRLSYGMDVWGQGTTVTVSS
VL: DIQMTQSPSSLSASVGDRVTITCRASQSISTYLNWYQKRPGKAPKLLVYGASSLQSGVPSRFSGSGSGTDFTLTIASLQPEDSAVYYCQQTYSIPLFGQGTRLEIK
For B13, the MFI in experiment [5] turned out to be 963 MFI.

B14: 3245_O19 (antibody, V domains shown)
VH: B13 VH with A87V
VL: B13 VL with S53T, V85T
For B14, the MFI in experiment [5] turned out to be 919 MFI.

B15: 3253_P10 (antibody, V domains shown)
VH: QVQLQESGPGLLKPSDTLALTCTVSGGSITSDYWSWIRQPPGRGLDWIGFFYNGGSTKYNPSLKSRVTISADTSKNQLSLKLTSVTAADTGVYYCARHDAKFSGSYYVASWGQGTRVTVSS
VL: DIQMTQSPSSLSASVGDRVTISCRASQSISTYLNWYQQQPGKAPKVLISGATDLQSGVPSRFSGSGSGTDFTLTISSLQPEDFATYYCQQSYNTPLIFGQGTKLEIK
For the molecule B15, in experiment [5], the MFI is 43 MFI.

B16: 3243_J07 (antibody, V domains shown)
VH: B15 VH with A100V
VL: B15 VL with D53N
In experiment [5], B16 returned an MFI of 131 MFI.

B17: 3244_I10 (antibody, V domains shown)
VH: B15 VH
VL: B15 VL with S49F, D53N
Regarding B17, in experiment [5], the MFI was found to be 434 MFI.

B18: 3241_G23 (antibody, V domains shown)
VH: QVQLQQSGPGLVKPSQTLSLTCTVSGGPVSGGGYSWNWIRQRPGQGLEWVGFMFHSGSPRYNPTLKSRITISVDTSKNLVSLKLSSVTAADTAVYFCARVGQMDKYYAMDVWGQGTTVTVSS
VL: DIQMTQSPSSLSSSVGDRVTITCRASQSIGAYVNWYQQKAGKAPQVLIFGASNLQSGVPSRFSGSGSGTDFTLTISSLQPEDFATYFCQQTYSTPITFGQGTRLEIK
Consider B18, for which, in experiment [5], the MFI was 1700 MFI.

For the origin of these results see patent publication US20140363441A1 (priority 2013, published 2014).
